Source: patent US20230272099A1 (Chugai, published 2023)

Key:
hCD137 (FXa digested) [1] = target: T1, hCD137 (FXa digested) (human, UniProt Q07011 24-186); test: SPR, 1 mM AMP
T1 construct: Factor Xa digestion and Protein A removed the Fc; also called human CD137 extracellular domain
Procedure: (§1) Biacore T200 (GE Healthcare) was used to analyze the interaction of antigen-antibody reaction between the anti-CD137 antibodies and hCD137 (FXa digest). […] For the running buffer, 20 mM ACES, 150 mM NaCl, 2 mM MgCl₂, 0.05% Tween20 (pH 7.4) was used, and 10 mM Glycine-HCl (pH 1.5) was used as the regeneration solution.
(§2) After capturing of the anti-CD137 antibodies suspended in TBS, 500 nM hCD137 (FXa digest) was injected into each flow cell at a flow rate of 10 μL/min for three minutes. This three-minute period served as the binding phase for hCD137 (FXa digest), and after the binding phase ended, the two-minute period of switching to the running buffer served as the dissociation phase for hCD137 (FXa digest). After completion of the dissociation phase, the regenerative solution was injected at a flow rate of 30 μl/min for 30 seconds. The above was the cycle for measuring the binding activity of anti-CD137 antibodies. The binding amount of hCD137 (FXa digest) that interacted with the anti-CD137 antibody in the binding phase was adjusted by the amount of antibody captured. Biacore T200 Evaluation Software Version 2.0 was used to display the binding amount (RU) per capture ligand 1 RU, and values of the antibody capture amount (amount of antibody captured) and antigen-binding amount were obtained. Since the binding amount of antigen reflects the binding activity, it can be said that dependence on a small molecule is recognized when the value in the presence of the small molecule (ATP, ADP or AMP) is higher than the value without the small molecule. In particular, the larger the difference is, the higher the dependence is on a small molecule.

[2] = target: T2, biotinylated Fc-fused monkey CD137 (monkey, biotin on the AviTag); test: ELISA, 1 mM ADP, 0.010 ug/mL; parameters: reference not given here
T2 construct: also called cyCD137-Fc-BAP
T2 sequence (chain, as listed by the source limits assumed): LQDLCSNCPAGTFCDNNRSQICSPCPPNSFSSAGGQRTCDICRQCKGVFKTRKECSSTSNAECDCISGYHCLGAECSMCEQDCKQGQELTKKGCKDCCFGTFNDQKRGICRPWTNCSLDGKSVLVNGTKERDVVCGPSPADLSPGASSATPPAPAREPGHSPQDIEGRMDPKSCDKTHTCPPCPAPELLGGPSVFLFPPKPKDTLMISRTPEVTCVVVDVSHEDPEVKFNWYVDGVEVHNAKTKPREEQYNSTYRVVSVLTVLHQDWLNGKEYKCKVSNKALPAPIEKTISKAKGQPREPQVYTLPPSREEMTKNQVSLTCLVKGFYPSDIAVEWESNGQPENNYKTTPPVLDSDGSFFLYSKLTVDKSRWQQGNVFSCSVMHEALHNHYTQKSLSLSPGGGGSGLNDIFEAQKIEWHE
Procedure: (§3) The obtained antibodies were evaluated for binding to monkey CD137 by ELISA. The cyCD137-Fc-BAP prepared in Reference Example 1 was immobilized on Streptawell microtiter plates. After the unbound antigen was removed from the plates by washing each well of the plates with the wash buffer, the wells were blocked with 150 μL of a blocking buffer (TBS with 2% BSA) for 1 hour or more. The blocking buffer was removed from each well, and 100 μL of the purified antibodies diluted in TBS with a final concentration of 1 mM ADP, or TBS with a final concentration 1 mM ADP was added to each well. The plate to which the antibody was added was shaken at 600 rpm for 1 hour. The AP-conjugated anti-human lambda antibodies (BETHYL) diluted in TBS with a final concentration of 1 mM ADP were added to each well after washing with a wash buffer (TBS with 0.1% Tween20) containing a final concentration of 1 mM ADP. After incubation for one hour and washing with a wash buffer containing a final concentration of 1 mM […], BluePhos phosphate substrate (KPL) was added. Color development was measured by absorbance at 600 nm. Samples with a concentration-dependent increase in the absorbance ratio can be said to be bound to monkey CD137.

hCD137 (FXa digested) [3] = target: T1, hCD137 (FXa digested); test: SPR, no small molecule
Procedure: as §1, §2

[4] = target: T2, biotinylated Fc-fused monkey CD137; test: ELISA, 1 mM ADP, 10 ug/mL; parameters: reference not given here
Procedure: as §3

hCD137 (FXa digested) [5] = target: T1, hCD137 (FXa digested); test: SPR, 100 uM ADP
Procedure: as §1, §2

[6] = target: T2, biotinylated Fc-fused monkey CD137; test: ELISA, 1 mM ADP, 0.625 ug/mL; parameters: reference not given here
Procedure: as §3

hCD137 (FXa digested) [7] = target: T1, hCD137 (FXa digested); test: SPR, 1 mM ATP
Procedure: as §1, §2

hCD137 (FXa digested) [8] = target: T1, hCD137 (FXa digested); test: SPR, 100 uM ATP
Procedure: as §1, §2

hCD137 (FXa digested) [9] = target: T1, hCD137 (FXa digested); test: SPR, 10 uM ADP
Procedure: as §1, §2

hCD137 (FXa digested) [10] = target: T1, hCD137 (FXa digested); test: SPR, 100 uM AMP
Procedure: as §1, §2

[11] = target: T2, biotinylated Fc-fused monkey CD137; test: ELISA, 1 mM ADP, 0.156 ug/mL; parameters: reference not given here
Procedure: as §3

[12] = target: T2, biotinylated Fc-fused monkey CD137; test: ELISA, 1 mM ADP, 2.5 ug/mL; parameters: reference not given here
Procedure: as §3

[13] = target: T2, biotinylated Fc-fused monkey CD137; test: ELISA, 1 mM ADP, 0.039 ug/mL; parameters: reference not given here
Procedure: as §3

T1 sequence (Q07011 other isoform, or with tags, fused parts or gaps limits assumed): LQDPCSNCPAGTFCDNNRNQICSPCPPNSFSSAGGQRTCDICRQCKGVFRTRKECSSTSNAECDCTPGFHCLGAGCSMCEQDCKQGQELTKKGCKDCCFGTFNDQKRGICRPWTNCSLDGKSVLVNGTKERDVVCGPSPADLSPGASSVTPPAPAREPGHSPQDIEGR

Binder	binding amount (hCD137 (FXa digested) [1]) [RU]	absorbance ratio [2]	binding amount (hCD137 (FXa digested) [3]) [RU]	absorbance ratio [4]	binding amount (hCD137 (FXa digested) [5]) [RU]	absorbance ratio [6]	binding amount (hCD137 (FXa digested) [7]) [RU]	binding amount (hCD137 (FXa digested) [8]) [RU]	binding amount (hCD137 (FXa digested) [9]) [RU]	binding amount (hCD137 (FXa digested) [10]) [RU]	absorbance ratio [11]	absorbance ratio [12]	absorbance ratio [13]
dBBAT091-P253 (antibody, human IgG1, lambda, V domains shown) VH: EVQLVESGGDLVKPGGGLRLSCAASGFTFSSYTMNWVRQAPGKGLEWVSSISSRSNYIDYADSVKGRFTISRDNAKNSLYLQMNSLRAEDTAVYYCARFGKKNDMNWVFDYWGQGTLVTVSS VL: QSALTQPPSASGSPGQTVTISCTGTSTDVGFYNYVSWYQQHPGKAPKLMIYEGSKRPSGVPDRFSGSKSGNTASLTVSGLQAEDEADYFCSSYEYTESVLFGGGTKLTVLG	2.9	0.6	1.5	15.1	33	1.7	6.2	3	20	3.3	0.7	5.5	0.5
dBBAT042-P253 (antibody, human IgG1, lambda, V domains shown) VH: EVQLVESGGDLVKPGGGLRLSCAASGFTFSSHTMNWVRQAPGKGLEWISSISSRSNYKSYADSVKGRFTISRDNAKNSLYLQMNSLRAEDTAVYYCARYGHKNMHNWVFDYWGQGTLVTVSS VL: QSALTQPPSASGSPGQTVTISCTGTSSDVGFYNYVSWYQQHPGKAPKLMIYEVSKRPSGVPDRFSGSKSGNTASLTVSGLQAEDEADYFCSTYRYDQNVAFGGGTKLTVLG	7.8	–	2.9	–	58.7	–	11.7	4.3	19.1	4.7	–	–	–
dBBAT037-P253 (antibody, human IgG1, lambda, V domains shown) VH: EVQLVESGGDLVKPGGGLRLSCAASGFTFSGYTMNWVRQAPGKGLEWVSSISSRSNYIDYADSVKGRFTISRDNAKNSLYLQMNSLRAEDTAVYYCARFGLKNSLNWVFDYWGQGTLVTVSS VL: QSALTQPPSASGSPGQTVTISCTGTSTDVGFYNYVSWYQQHPGKAPKLMIYETSKRPSGVPDRFSGSKSGNTASLTVSGLQAEDEADYFCSSYSGASILLFGGGTKLTVLG	21.7	1.1	3.8	32.5	72.1	4.6	27.5	15.9	62.9	13.8	1.9	12.7	1.3

Next, values leading:

binding amount (hCD137 (FXa digested) [1]) [RU]	absorbance ratio [2]	binding amount (hCD137 (FXa digested) [3]) [RU]	absorbance ratio [4]	binding amount (hCD137 (FXa digested) [5]) [RU]	absorbance ratio [6]	binding amount (hCD137 (FXa digested) [7]) [RU]	binding amount (hCD137 (FXa digested) [8]) [RU]	binding amount (hCD137 (FXa digested) [9]) [RU]	binding amount (hCD137 (FXa digested) [10]) [RU]	absorbance ratio [11]	absorbance ratio [12]	absorbance ratio [13]	Binder
6.5	0.6	3.7	19.8	43	2.8	12.6	6.3	27.4	4.8	1	8.1	0.6	dBBAT112-P253 (antibody, human IgG1, lambda, V domains shown) VH: EVQLVESGGDLVKPGGGLRLSCAASGFTFSTYTMNWVRQAPGKGLEWVSSISSRSNYKFYADSVKGRFTISRDNAKNSLYLQMNSLRAEDTAVYYCARFGVKNNMNWVFDYWGQGTLVTVSS VL: QSALTQPPSASGSPGQTVTISCTGTSSDVGFYNYVSWYQQHPGKAPKLMIYEVSKRPSGVPDRFSGSKSGNTASLTVSGLQAEDEADYFCSSYEYIESVLFGGGTKLTVLG
5.7	0.9	3.3	31.9	55.5	5.7	11.5	4.7	19.2	4.1	1.9	16.7	1	dBBAT122-P253 (antibody, human IgG1, lambda, V domains shown) VH: EVQLVESGGDLVKPGGGLRLSCAASGFTFSTYTMNWVRQAPGKGLEWVSSISSRSNYKFYADSVKGRFTISRDNAKNSLYLQMNSLRAEDTAVYYCARFGGKNNMNWVFDYWGQGTLVTVSS VL: QSALTQPPSASGSPGQTVTISCTGTSSDVGFYNYVSWYQQHPGKAPKLMIYEVSKRPSGVPDRFSGSKSGNTASLTVSGLQAEDEADYFCSSYEYIESVLFGGGTKLTVLG
